Experimental data taken from patent US20090068158A1, “THYMIDYLATE KINASE MUTANTS AND USES THEREOF” (priority 2005, published 2009).
Residue numbers refer to the chain shown, from its start. In names and notes the source's numbering stands. Entries after “also recorded” stand apart in the source; their conditions may differ.

Key:
Jurkat cells [1] = assay: AZT sensitivity of LV-tmpk-transduced Jurkat cells (MTT cell viability assay); format: cell-based, human; conditions: for cell viability upon addition of AZT (in words), Example 15: clonal Jurkat cells, AZT up to 1 mM, 4 days
Protocol: Transduced Jurkat cells and the single-cell clones were seeded in 96 well plates (2×10^5/well) in 200 μl of medium containing increasing concentrations of AZT (0, 1, 10 and 100 μM). The medium was changed daily. […] Data are expressed as mean±standard error of mean (SEM).
To examine the AZT-mediated celikilling activity of tmpk cDNA, each of transduced cells were incubated with the increasing concentration of AZT. After incubating both non-transduced and LV-transduced cells with AZT for […], cell viability was determined using MTT assay (FIG. 4A).
Transduced Jurkat cells and single-cell clones were seeded in 96 well plates (2×10^5 cells/well) in 200 μl of the RPMI medium described above with increasing concentrations of AZT (0, 0.1, 1, 10, 100 μM, and 1 mM). The medium was changed daily. After 4 days of culture, cell viability was determined by using Cell Titer 96 Aqueous One Solution Cell Proliferation Assay kit (Promega, Madison, Wis.).

Jurkat cells [2] = assay: HPLC determination of intracellular AZT metabolites in cells treated with 100 μM AZT; format: cell-based, human
Protocol: The cells were cultured in the presence of 100 μM AZT for 36 hrs. 10^7 cells were homogenized by sonication in 100 μl of 5% (w/v) trichloroacetic acid. The supernatant is collected after homogenate had been centrifuged at 10,000×g for 15 min at 4° C. The trichloroacetic acid was removed by extraction with an equal volume of 20% tri-n-octylamine in pentane. The neutralized aqueous fraction is directly injected into HPLC. Separation of AZT and its metabolites was performed on a C18 column (Waters) with a mobile phase composed of 0.2 M phosphate buffer containing 4 mM tetrabutylammonium hydrogen sulfate (pH 7.5) and acetonitrile in the ratio of 97:3 (v/v). The mobile phase was pumped at a flow rate of 1.5 ml/min. The UV absorbance was monitored at 270 nm. Five million cell equivalents were injected and analyzed in triplicate.
Cells were cultured in the presence of 100 μM AZT for 36 h. 10^7 cells were homogenized by sonication in 100 μl of 5% (w/v) trichloroacetic acid (TCA). The supernatant was collected after centrifugation at 10,000×g for 15 min at 4° C. TCA was removed by extraction with an equal volume of 20% tri-n-octylamine in pentane. The neutralized aqueous fraction was directly injected into the HPLC machine (Waters, Milford. MA). Separation of AZT and its metabolites were performed on a C18 column (Waters), with a mobile phase composed of 0.2 M phosphate buffer containing 4 mM tetrabutylammonium hydrogen sulfate (pH 7.5) and acetonitrile in the ratio of 97:3 (v/v)^48 at a flow rate of 1.5 ml/min. The UV absorbance was monitored at 270 nm. Standards for each AZT-metabolite (AZT-MP, AZT-DP, and AZT-TP) were purchased from Moravek Biochemicals (Brea, Calif.). Five million cell equivalents were injected and analyzed in triplicate.

Jurkat cells [3] = assay: AZT sensitivity in LV-TMPK (Lentigen) transduced Jurkat cells; format: cell-based, human; conditions: increasing concentrations of AZT
Protocol: The function of tmpk was tested by assessing sensitivity to AZT (FIG. 21).

Jurkat cells [4] = assay: Induction of apoptosis by 100 μM AZT in LV-tmpk-transduced Jurkat cells (annexin V staining); format: cell-based, human; conditions: 4 days; for early apoptotic cell index in response to AZT treatment: transduced Jurkat cells, n=3
Protocol: Cells were seeded in 24 well plates (10^6/well) in 1 ml of medium with or without 100 μM of AZT. The medium was changed daily. After 4 days of culture, induction of apoptosis in the cells were analyzed by annexin-V staining according to the manufacturer's protocol (Annexin V-APC: BD Pharmingen). **, P<0.01, n=3. Data are expressed as mean±SEM.
(§1) For evaluation of the induction of apoptosis, treated Jurkat clonal cells were stained with Annexin V. Briefly, cells were seeded in 24 well plates (10^6 cells/well) in 1 ml of medium with or without 100 μM AZT. After 4 days of culture, Annexin V staining was performed according to the manufacturer's protocol (Annexin V-APC: BD Pharmingen). For testing whether AZT-mediated cell killing depends on the cellular proliferation, indirubin-3′-monoxime (final concentration 5 μM, Sigma-Aldrich, St. Louis, Mo.) was added simultaneously with 100 μM AZT to the culture.
(§2) To simplify comparative studies a relative apoptotic index was calculated. Here data obtained was normalized by dividing results from AZT treated cells in each condition by the results obtained without added AZT. Values were reported as fold increases. Statistical significance between groups was calculated by ANOVA.

Jurkat cells [5] = assay: Loss of mitochondrial membrane potential after AZT (JC-1 staining, flow cytometry); format: cell-based, human; conditions: transduced Jurkat cells, 100 μM AZT
Protocol: Cells (10^6 cells) treated with (shown (+) in figure) or without (−) 100 μM AZT were stained with JC-1 for […] at 37° C., and then were analyzed by flow cytometry. ***, P<0.001, n=3.
(§3) Transduced cells […] were treated with 100 μM AZT for 4 days or left untreated. To detect changes in the mitochondrial inner membrane potential, the cells were incubated with 5,5′,6,6′-tetrachloro-1,1′,3,3′-tetraethylbenzimidazolylcarbocyanine iodide (JC-1, Molecular Probes Inc.) for 30 min at 37° C., and were then analyzed using a FACS Calibur. The activation of caspase-3 in cells was examined using the FACS Calibur following incubation with an FITC-labeled caspase 3 inhibitor peptide (FITC-DEVD-FMK, Calbiochem, San Diego, Calif.) for 1 hr at 37° C.

Jurkat cells [6] = assay: AZT-induced apoptosis/cell killing under cell cycle arrest with indirubin-3'-oxime; format: cell-based, human
Protocol: Cells were seeded in 24-well plates (10^6/well) in 1 ml of medium containing 0 (shown in AZT (−) in figure) or 100 μM of AZT (shown in AZT (+)) with or without 5 μM indirubin-3′-oxime (Figure (B) and (A), respectively). The medium was refreshed daily. After 2 days of culture, induction of apoptosis by AZT was analyzed by annexin V staining according to the manufacturer's protocol described. **, P<0.01, n=3. Data are expressed as mean±SEM.
as §1, §2

K562 cells = assay: Growth of transduced K562 cells xenografted into AZT-treated NOD/SCID mice; format: in vivo; conditions: for tumor size / final tumor volume: transduced K562 cells sc in NOD/SCID mice, four and a half weeks past injection
Protocol: Female or male 5 to 8-week-old non-obese diabetic/severe combined immunodeficient (NOD/SCID) mice were purchased from Jackson Laboratory. Lentivirally-transduced or non-transduced K562 cells (20×10^6 cells) were resuspended in 0.5 mL Dulbecco's phosphate-buffered saline (D-PBS) per inoculum and injected subcutaneously (SC) into the right flanks of recipient mice. AZT treatment, which was administered intraperitoneally (IP) at the dose of 2.5 mg/kg/day, was started one day after injection and conducted for 14 days. In vivo tumor cell growth was monitored by measuring tumor size for up to 32 days post-inoculations. All experimental data were reproduced at least twice.
Transduced K562 cells were affinity-purified by MACS using magnetic beads conjugated with an anti-human CD19 monoclonal antibody (Miltenyi Biotec Inc., Auburn, Calif.). The purity of the cells following isolation was evaluated by FACS Calibur. Non-obese diabetic/severe combined immunodeficiency (NOD/SCID) mice (5 to 8-weeks old, purchased from Jackson Laboratories, Bar Harbor, Me.) were maintained at the Animal Resource Centre at the Princess Margaret Hospital (Toronto, ON, Canada). The entire animal experimental procedure followed a protocol approved by the Animal Care Committee of the UHN. Experimental groups consisted of male and female NOD/SCID mice injected with 2×10^7 K562 cells (resuspended in 0.5 mL D-PBS; Oxoid, Basingstoke, England) that were either lentivirally-transduced (n=10 for each LV) or non-transduced (NT) (n=10). Injections were performed subcutaneously (sc) into the dorsal right flanks of recipient mice as previously described^49. One day after injection of the cells, half of the mice in each group (n=5) began receiving daily AZT injections, administered intraperitoneally (ip) at a dose of 2.5 mg/kg/day for 14 days. Tumor growth was measured by caliper and calculated as 0.5×length×width^2 (in mm^3) for up to […].

Jurkat cells [7] = assay: Activation of caspase 3 by AZT (FITC-DEVD-FMK, flow cytometry); format: cell-based, human; conditions: clonal Jurkat cells, 100 μM AZT, 4 days
Protocol: as §3

primary human T cells = assay: Induction of apoptosis by AZT in transduced primary human T cells (annexin V); format: cell-based; conditions: 100 μM AZT, 4 days
Protocol: Human T lymphocytes were isolated from PBMNCs contained within heparinized blood obtained from healthy human donors by Ficoll-Hypaque (GE Healthcare) separations. Mouse T cells were prepared from B cell-depleted splenocyte preparations using goat anti-mouse IgG beads (BioMag, Qiagen, Mississauga, ON). T cells were activated by using anti-CD3 and anti-CD28 coated beads (PMID: 12855580) in a ratio of 1:3 (cell:beads) with 20 IU/mL of recombinant human interleukin 2 (R&D Systems, Minneapolis, Minn.) for 3 days. Cells were infected with concentrated virus stocks for 3 h on ice using an indicated MOI in the presence of 8 μg/ml protamine sulfate. Infected cells were then kept in culture for 5 days prior to evaluating gene transfer efficiency. Gene transfer efficiencies were measured by flow cytometry using a monoclonal anti-human CD19-antibody conjugated with phycoerythrin (PE) as described above. Induction of apoptosis following AZT-exposure was evaluated by Annexin V-staining as above.

[8] = Enzymatic activity of tmpk mutants for AZT-MP; format: biochemical, human
[9] = relative to wild-type tmpk; cited from earlier work

In the case of `Cc1cn([C@H]2C[C@H](N=[N+]=[N-])[C@@H](CO)O2)c(=O)[nH]c1=O` [AZT, Zidovudine, reference compound], the IC50 (Jurkat cells [1]; Homo sapiens, 120 h, LV-tmpk mutant transduced Jurkat cells, AZT 0-100 μM, 5 days, read-out: IC50 of AZT for killing of transduced cells) is reported as 2000 nM, the “intracellular ratio of AZT-TP to AZT-MP in non-transduced cells” value (Jurkat cells [2]; non-transduced Jurkat cells, 100 μM AZT for 36 h) is reported as 0.02 and the “AZT sensitivity of transduced cells (in words)” value (Jurkat cells [3]) is reported as “dose dependent killing”.

B1: wild-type tmpk: wild-type human thymidylate kinase overexpressed by LV transduction, comparator (protein, UniProt P23919 2-212, looked up)
Thymidylate kinase: AARRGALIVLEGVDRAGKSTQSRKLVEALCAAGHRAELLRFPERSTEIGKLLSSYLQKKSDVEDHSVHLLFSANRWEQVPLIKEKLSQGVTLVVDRYAFSGVAFTGAKENFSLDWCKQPDVGLPKPDLVLFLQLQLADAAKRGAFGHERYENGAFQERALRCFHQLMKDTTLNWKMVDASKSIEAVHEDIRVLSEDAIRTATEKPLGELWK
In the case of B1, the “cell viability upon addition of AZT (in words), Example 15” value (Jurkat cells [1]) is reported as “limited cell killing”, the “AZT sensitivity / cell killing of transduced cells (in words)” value (Jurkat cells [1]; transduced Jurkat cells, AZT up to 100 μM) is reported as “non-sensitive to AZT up to 100 μM; also recorded: unaffected by AZT up to 100 μM” and the “early apoptotic cell index in response to AZT treatment” value (Jurkat cells [4]) is reported as 6.2±0.3%. For the same molecule, the “intracellular ratio of AZT-TP to AZT-MP” value (Jurkat cells [2]; LV-transduced Jurkat cells, 100 μM AZT for 36 h) was 0.10, the “conversion of AZT-MP / accumulation of AZT-TP (in words)” value (Jurkat cells [2]; clonal Jurkat cells, 100 μM AZT 36 h) was “no significant increases in the accumulation of AZT-TP” and the “loss of mitochondrial (inner) membrane potential after AZT treatment (in words)” value (Jurkat cells [5]) was “did not demonstrate a similar loss of mitochondrial inner membrane potential”. The “apoptotic index with AZT in presence of indirubin-3'-monoxime (in words)” value (Jurkat cells [6]; clonal Jurkat cells, 100 μM AZT + 5 μM indirubin-3'-monoxime, 4 days) was “No significant increases”, the “cells killed by AZT after cell cycle arrest” value (Jurkat cells [6]; transduced Jurkat cells, indirubin-3'-oxime 5 μM, 100 μM AZT, 2 days) was 2% and the “tumor growth under AZT (in words), Example 8/10” value (K562 cells; transduced K562 cells in NOD/SCID mice, AZT 2.5 mg/kg for two weeks) was “no significant reduction in tumor volume”. For the same molecule, the “tumor size / final tumor volume” value (K562 cells; AZT 2.5 mg/kg for two weeks) was 2000 mm^2 and the “activation of caspase 3 by AZT (in words)” value (Jurkat cells [7]) was “slight, but significant, increase”.

B2: F105Y: modified human thymidylate kinase (tmpk), F to Y mutation at amino acid position 105 (SEQ ID NO: 11, 21) (protein, UniProt P23919 2-212, looked up, variant F105Y)
Thymidylate kinase: B1 Thymidylate kinase with F104Y
With B2 the “cell viability upon addition of AZT (in words), Example 15” value (Jurkat cells [1]) was “minimally viable”, the “fold increase of apoptotic index by AZT-treatment” value (Jurkat cells [4]; clonal Jurkat cells, normalized to no AZT) was 9.5±0.8 fold and the “early apoptotic cell index in response to AZT treatment” value (Jurkat cells [4]) was 40.7±1.7%. For the same molecule, the “loss of mitochondrial (inner) membrane potential after AZT treatment (in words)” value (Jurkat cells [5]) was “significant increase”, the “fold increase of apoptotic index by AZT in presence of indirubin-3'-monoxime” value (Jurkat cells [6]; clonal Jurkat cells, 100 μM AZT + 5 μM indirubin-3'-monoxime, 4 days, normalized to no AZT) was 2.3±0.4 fold and the “tumor growth under daily AZT (in words), Example 15” value (K562 cells; 2×10^7 transduced K562 cells sc in NOD/SCID mice, AZT 2.5 mg/kg/day ip for two weeks, day 14) was “strongly inhibited; also recorded: suppression of tumor growth”. The “tumor size / final tumor volume” value (K562 cells; AZT 2.5 mg/kg for two weeks) was 100-300 mm^2, the “fold increase in percentage of activated caspase 3-positive cells by AZT” value (Jurkat cells [7]; normalized to no AZT) was 4.6±0.1 fold and the “fold increase of apoptotic index by AZT” value (primary human T cells) was 4.0±0.3 fold. The “enzymatic activity / catalytic conversion compared to wild-type tmpk (in words)” value [8] was “substantially increased catalytic conversion of AZT; also recorded: superior enzymatic activity”.

B3: F105Y+R200A: modified human tmpk combining mutations F105Y and R200A (protein, UniProt P23919 2-212, looked up, variant F105Y R200A)
Thymidylate kinase: B1 Thymidylate kinase with F104Y, R199A
In the case of B3, the “enzymatic activity / catalytic conversion compared to wild-type tmpk (in words)” value [8] is listed as “superior enzymatic activity” and the “enhanced activity for AZT-MP” value [9] is listed as “approximately 200 fold”.
